Test results: patent EP0702725B1

Experiments:
[1] = molecular target: recombinant human GIF secreted by COS-1 cells co-transfected with SRα-hcGIF and SRα-hfurin (human); assay: absorption on 388F1-Sepharose, acid elution; 12H5 GIF bioassay
[2] = molecular target: flow-through fraction from 110BH3-Sepharose of the culture supernatant of anti-CD3-stimulated AC5 cells; assay: ELISA on wells coated with the flow-through fraction from 110BH3-Sepharose; biotinylated 388F1, amplification system
[3] = molecular target: recombinant human GIF secreted by COS-1 cells co-transfected with SRα-hcGIF and SRα-hfurin (human); assay: absorption on 388F1-Sepharose; titration of GIF bioactivity in the fractions
[4] = molecular target: PLA2-binding GIF (antigen-binding GIF) from anti-CD3-stimulated human T-cell hybridoma AC5 (human)
[5] = molecular target: bovine serum albumin (BSA) (bovine) (UniProt P02769); assay: same ELISA, control wells
Chain of UniProt P02769 (P02769 25-607 limits assumed): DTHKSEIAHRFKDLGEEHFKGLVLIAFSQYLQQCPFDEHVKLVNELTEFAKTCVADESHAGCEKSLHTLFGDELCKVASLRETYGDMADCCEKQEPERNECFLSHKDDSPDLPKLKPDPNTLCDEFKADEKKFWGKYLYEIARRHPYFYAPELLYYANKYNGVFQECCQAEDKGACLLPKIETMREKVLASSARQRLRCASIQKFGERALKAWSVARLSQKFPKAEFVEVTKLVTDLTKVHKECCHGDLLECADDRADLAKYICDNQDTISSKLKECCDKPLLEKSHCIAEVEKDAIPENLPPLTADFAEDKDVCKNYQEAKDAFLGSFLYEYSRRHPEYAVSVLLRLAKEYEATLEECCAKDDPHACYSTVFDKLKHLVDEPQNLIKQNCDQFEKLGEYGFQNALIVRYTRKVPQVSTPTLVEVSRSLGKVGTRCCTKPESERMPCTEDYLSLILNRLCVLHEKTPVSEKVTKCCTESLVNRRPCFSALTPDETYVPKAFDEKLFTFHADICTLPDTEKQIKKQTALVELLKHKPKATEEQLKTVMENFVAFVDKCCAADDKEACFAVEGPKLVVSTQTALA

## monoclonal anti-human GIF antibody 388F1 (ATCC HB 10472)
[1]
  GIF activity recovered in the acid eluate fraction: > 75%
[2]
  ELISA signal (absorption at 490 nm) (absorbance 490 nm): 0.36
[3]
  GIF activity of the flow-through relative to the eluate fraction: < 0.1 fold
[4]
  ELISA signal (absorption at 490 nm) (absorbance 490 nm): 0.86
[5]
  ELISA control (nonspecific binding to BSA-coated wells, OD 410): 0.1 OD 410
